Results: patent US20230052142A1 (NORDIC BIOSCIENCE A S, published 2023)

Biological target: T1, monoclonal antibody clone NBH134 #102-3GF
T1 construct: also called TUM antibody; HRP labeled monoclonal antibody
Experiment: TUM competitive ELISA: the standard peptide in solution competes with plate-bound …-K-Biotin for the HRP-labelled antibody
Experimental: Plates were washed five times in washing buffer (20 mM TRIS, 50 mM NaCl, pH 7.2). Subsequently, 20 μL of standard peptide or sample were added to appropriate wells, followed by 100 μL of 7 ng/mL horseradish peroxidase (HRP) labeled monoclonal antibody solution. The plates were incubated for 1 hour at 20° C. with shaking, and subsequently washed in washing buffer. Finally, 100 μL 3,3′,5,5-tetramethylbenzinidine (TMB) (Kem-En-Tec cat. 4380H) was added, and incubated for 15 min at 20° C. To stop the enzyme reaction of TMB, 100 μL of stopping solution (1% H₂SO₄) was added. The plate was analyzed by an ELISA reader at 450 nm with 650 nm as reference (Molecular Devices, VersaMax, CA, USA). A standard curve was performed by serial dilution of the standard peptide and plotted using a 4-parametric mathematical fit model. Standard concentrations were 0, 0.3125, 0.625, 1.25, 2.5, 5, 10, and 20 ng/mL. Each plate included five kit controls to monitor inter-assay variation. All samples were measured within the range of the assay, and all samples below lower limit of measurement range (LLMR) were reported as the value of LLMR.

IC50: 1.6 ng/mL
B1: standard peptide PGLKGKRGDS (peptide)
peptide: PGLKGKRGDS
notes: Synthetic peptide bought from Genscript; also called calibrator peptide; calibration peptide
